± gives the uncertainty stated by the source.
assay: protein stability index of a GFP-peptide fusion (yeast GPS) (PSI 1-4); higher = more stable; sorted into four equal gates, so the index is relative within each strain; conditions: san1∆
In short: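 Mid-log yeast cultures in leucine-free medium, carrying a pooled plasmid library, were sorted into four equal gates by their GFP/Cherry fluorescence ratio. Each plasmid expressed Cherry along with GFP fused upstream of a tiled 17-residue yeast protein peptide. Plasmids recovered from each gate were PCR-amplified and Illumina-sequenced, with reads assigned to strains by barcodes. The protein stability index was obtained by summing each gate's read frequency weighted by its gate number.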

Sequence | protein stability index
SVKFTHIAHTLPEKVNF [SSN2] | 2.2 ± 0.066
SVKSARTSTRGRGRGRG [SNF2] | 3.19 ± 0.046

same assay, conditions: ubr1∆

Sequence | protein stability index
SLKQYAGNLITTPEINN [SRP68] | 2.31 ± 0.041
SLLKTKLKQQSSTDIPS [RRI1] | 2.44 ± 0.062
SLLLAHFFSKSCSFFAK [NUT1] | 1.68 ± 0.039
SLLNLLNISPFTFGLTV [RPP0] | 1.84 ± 0.044
SLLPYYHLTKAVKLGDL [RPN3] | 1.78 ± 0.066
SLNEVGTLKVILNLYSS [YML103C/NUP188] | 2.4 ± 0.11
SLNYKFTTNKSKDVSRL [SRP21] | 3.14 ± 0.072
SLPFLLRHMPLASIPDI [SSN2] | 1.44 ± 0.045
SLPSKLTKYKEMERIVK [SRP68] | 2.86 ± 0.044
SLQDNSAAINNEDARAI [RPN4] | 3.18 ± 0.05
SLRETNTTDPLGHTKAA [SIR2] | 3.2 ± 0.082
SLSEGCDILVATPGRLI [PRP28] | 3.28 ± 0.05
SLSYMAFPNASKKNRPT [RRP40] | 2.9 ± 0.14
SLTEATKTNVDNNSKAE [YLR335W/NUP2] | 3.32 ± 0.042
SLTKDKSIRKDTVEEKK [SIR4] | 3.12 ± 0.069
SLVIIILVKRYSIEMKP [ECM29] | 2.04 ± 0.044
SMDTKKKHKQKKVLEID [BRN1] | 3.33 ± 0.044
SMFGSDQKTGRAKSSSH [RPN4] | 2.9 ± 0.076
SMGTMICGYTRKEGPTI [PRE2] | 2.71 ± 0.069
SMPLEQLIPIILRQRGP [SRB4] | 1.91 ± 0.055
SNAAGADDAISMHLLKD [SRB8] | 2.76 ± 0.055
SNAVTQTNIWEENWDDV [SEM1] | 3.43 ± 0.14
SNDLCSQIFDQLKDMQT [SRB8] | 2.71 ± 0.034
SNDNLDLISEILKWVQW [MED1] | 3.09 ± 0.047
SNEICDLAYQYVRALEL [SRB2] | 3.08 ± 0.042
SNEIKVTNDLDTSAEKD [SIR4] | 3.04 ± 0.055

Sequence | protein stability index
SNHNNLNLNNSELQPQN [SNF2] | 2.81 ± 0.056
SNIDYQTLLANSDHAKF [SNF2] | 2.53 ± 0.075
SNIEQTESLRVENSVLI [YIL149C/MLP2] | 3.07 ± 0.064
SNIIHDESDTISFRSNL [SNF6] | 2.7 ± 0.067
SNKPIFLFAPELGAINL [SWI1] | 2.11 ± 0.046
SNPQHIIQPFLDNSKMD [RGR1] | 2.86 ± 0.034
SNPSGNYTGWKAISVGA [PRE9] | 2.22 ± 0.048
SNSAGTSLFGSSSAQQT [YJL041W/NSP1] | 3.17 ± 0.052
SNSSELEPDYQAPFSTS [MED1] | 3.05 ± 0.046
SNTRTMTYKNKLTVCFD [MED2] | 1.35 ± 0.056
SPDQMRNLQMGLRNQNM [GRR1] | 2.71 ± 0.082
SPEEQRSLLQEAIETCK [GAL11] | 2.88 ± 0.069
SPFGGSSHAKGIVLEKL [RPS23A] | 3.17 ± 0.063
SPIPFPPLTYKNDTKIL [PRP8] | 2.24 ± 0.029
SPKPYAVKYGLNHVVAL [RPL8A] | 2.08 ± 0.044
SPLDIYSDEASAQKKRF [RPS2] | 3.03 ± 0.061
SPVELSRMFEEVSGSIQ [SMC1] | 3.02 ± 0.062
SPVQIAFNRFMAESLVD [SSN8] | 1.52 ± 0.044
SQDATKVDATPEESKPI [YLR335W/NUP2] | 3.18 ± 0.06
SQIRLYAKFKRNTMMIQ [RGR1] | 2.61 ± 0.13
SQKQTLIKKPLTVFYAI [SSN3] | 2.01 ± 0.057
SQPKIGYGSNKKTKFLS [RPL32] | 1.38 ± 0.096
SQPTAAGGPDMTTPQNI [DSN1] | 1.36 ± 0.053
SQSKMMSSQISSLIPHC [MTR3] | 2.31 ± 0.042
SQSLGVSNKFEKIFHYG [PUP3] | 3.61 ± 0.14
SQTPSFNTNSSFTPSTV [YOR098C/NUP1] | 2.898 ± 0.026

Sequence | protein stability index
SQVVWIRRLRVLRRLLA [RPL19A] | 1.29 ± 0.053
SRAQILQIHSRKMTTDD [RPT5] | 3.08 ± 0.046
SRDELIRLAKTLKKNNV [RPN10] | 2.07 ± 0.089
SRDLWCFSINDDPVPTP [SSN2] | 2.63 ± 0.1
SRENNSEYMVFGKLAFP [YJL039C/NUP192] | 2.79 ± 0.082
SREVLRYEEFADKVKLG [RPC40] | 3.21 ± 0.14
SRFTNVSVIAPESQGQH [YMR153W/NUP53] | 3.19 ± 0.048
SRKRGGENVFLKRISDG [SIR3] | 3.24 ± 0.037
SRLTLLLRALKTNEESA [PRP8] | 1.97 ± 0.044
SRMFEEVSGSIQYKKEY [SMC1] | 3.21 ± 0.057
SRNFSTRDEETTKLAFL [SIR4] | 2.97 ± 0.038
SRRPEPKKFGGKGARSR [RPS16A] | 3.06 ± 0.052
SRRTVNKEMETQRIMTN [YLR018C/POM34] | 3.1 ± 0.2
SSDVDMDDEEWRSKRIE [RPC53] | 3.31 ± 0.069
SSEQDYSTLKELLEYSD [YCG1] | 3.15 ± 0.086
SSETDDDHSQVINPQQL [DSN1] | 3.08 ± 0.048
SSFGSESLTFNEFQLQW [SWI1] | 3.02 ± 0.046
SSFNKRSKFLSTVAKFL [IRR1] | 2.4 ± 0.035
SSGFNEDIVGALRRRVG [REC8] | 1.11 ± 0.11
SSHQRVFKLSTNLISKI [SWP82] | 1.93 ± 0.048
SSLEARYFFYLSKINAI [RPN3] | 1.75 ± 0.042
SSLSAIIVFGYPESISN [YDL088C/ASM4] | 2.01 ± 0.062
SSLYEASLNALKESIKN [RPN1] | 3.08 ± 0.065
SSNTNNNTNNNNTNTGA [SWI1] | 3.33 ± 0.065
SSPDTMKLTDLLSLINS [SNF12] | 2.67 ± 0.036
SSPEEPFMSYSPQLTAI [SNF12] | 2.77 ± 0.051

Sequence | protein stability index
SSSMDMQANTNALRRNL [SSN3] | 2.28 ± 0.043
SSTGVPESIDTILSSKL [SRB2] | 3.04 ± 0.075
SSTKDYLTPPHECRLRD [RET1] | 3.25 ± 0.16
SSVFLPSRKDCMEVASA [BRR2] | 3.19 ± 0.059
SSVKTCFKPMSLTSKRL [RIP1] | 2.62 ± 0.033
SSYDLLFNESFIMASVG [SRP72] | 3.16 ± 0.059
STDELVGSPLTVSILQE [POP8] | 2.26 ± 0.084
STDKLVQCHGSFATATC [SIR2] | 2.76 ± 0.037
STFENRNVGKTLVNKST [RPS1A] | 3.14 ± 0.068
STFREWKNLVLKLSQAF [YJR042W/NUP85] | 2.74 ± 0.076
STLEPTLRKELEQIQVQ [YIL149C/MLP2] | 2.3 ± 0.048
STLGDCLGIKDEEMLTS [GAL11] | 3.04 ± 0.088
STMKENKDLSELVIRLE [YIL149C/MLP2] | 3.09 ± 0.069
STNESNKSISDEITEDM [SSN2] | 2.98 ± 0.045
STPYLEILVEESGLRPV [PCI8] | 2.17 ± 0.091
STSYAIKKKDELERVAK [RPS5] | 3.35 ± 0.081
STTMDGANDLGFTASVS [MED1] | 2.99 ± 0.081
STTTSVNGSTTAGVGST [SIN4] | 2.85 ± 0.036
STVSGELNDNPAWFNNP [YMR153W/NUP53] | 3.35 ± 0.049
STYRLEDVLSSFYRVEK [SSN2] | 2.48 ± 0.094
SVAPTKQREIVKAFLSI [NUT1] | 2.04 ± 0.063
SVDLEKLAFGLTKLNED [TAF14] | 3.61 ± 0.12
SVKESTGMSSMSPFLRK [SRB4] | 3.15 ± 0.079
SVKFTHIAHTLPEKVNF [SSN2] | 1.92 ± 0.029
SVKSARTSTRGRGRGRG [SNF2] | 3.32 ± 0.041
